# Test results from patent publication US11407988B2, “Composition and uses thereof” (priority 2015, dated 2022).
# Values joined by “and” are separate entries in the source; they are usually repeats but may differ in a detail not shown here. Identical values can stand only once. Like-named read-outs stand apart in the source and are kept apart here. Where a SMILES comes first, the peptide text is derived from it. [ ]: non-standard residue; d: D form. The star is where a group is joined. Sta = CC(C)C[C@H](N)[C@@H](O)CC(=O)O; Isovaleryl = CC(C)CC(=O)*
# B1: recombinant Thermitase 16: protease 16 cloned and heterologously expressed in Lactococcus lactis strain MG1363 (L. lactis strain 16), heat activated (protein)
# chain: YTPNDPYFSSRQYGPQKIQAPQAWDIAEGSGVKIAIVDTGVQSNHPDLAGKVVGGWDFVDNDSTPQDGNGHGTHCAGIAAAVTNNSTGIAGTAPKASILAVRVLDNSGSGTWTAVANGITYAADQGAKVISLSLGGTVGNSGLQQAVDYAWNKGSVVVAAAGNAGNTAPNYPAYYSNAIAVASTDQNDNKSSFSTYGSWVDVAAPGSSIYSTYPTSTYASLSGTSMATPHVAGVAGLLASQGRSASNIRAAIENTADKISGTGTYWAKGRVNAYKAVQY
# B2: protease 16: Thermitase (serine alkaline protease, EC 3.4.21.66) secreted by Thermoactinomyces sp. 16; mature amino acid sequence SEQ ID NO: 1 (protein)
# chain: B1 chain
# modifications: Thermoactinomyces sp. 16
# Columns and labels:
# [1] = system: purified protease of Thermoactinomyces sp. 16 (protease 16); format: biochemical; conditions: for Inhibition of the enzyme (in words): 10 mM inhibitor
# [2] = biological target: PrP^Sc, RML scrapie strain (Mus musculus, UniProt P04925); conditions: pH 7
# [3] = system: BSA (1%, w/v); test: Effect of pH on protease activity of original and recombinant proteinase 16; format: biochemical; conditions: 0.1M Universal buffer, 30 min, 40 C
# [4] = biological target: PrP (PrP^C and PrP^Sc) in GT22L lysate, 22 L scrapie strain (Mus musculus, UniProt P04925); conditions: pH 7
# [5] = system: bovine serum albumin (BSA); test: Protease assay of purification steps of protease 16 (BSA, 0.1M CAPS pH 11.0, 40° C.); format: biochemical
# Excerpt: The secreted protease was purified from cell free supernatant by (NH4)2SO4 (0-60%) fractionation followed by affinity chromatography on Bacitricin-Sepharose 4B according to the quantities shown in Table 3 below.
# The first step was ammonium sulphate (0-60%) fractionation. To express the final ammonium sulphate concentration as % ammonium sulphate saturation the Green and Hughes calculations were used. The precipitate obtained after fractionation was suspended in 0.02M HEPES buffer, pH 7.0 and was dialysed against water for 24 h. The second step used was affinity chromatography on bacitracin-Sepharose 4B using a modification of the method of Stepanov and Rudenskaya. Bacitracin-Sepharose 4B was equilibrated with 0.04M Tris/HCL, pH 7.9. Enzyme solution in 0.04M Tris/HCL pH 7.9 was applied to the column and the column was washed with the same buffer to remove all unbound protein. […] The propan-2-ol and NaCl were removed from the protease solution by dialysis.
# [6] = biological target: PrP^Sc, BSE strain 301V (Mus musculus, UniProt P04925); conditions: pH 7
# [7] = biological target: PrP (PrP^C and PrP^Sc) in GTK lysate, chandler scrapie isolate (Mus musculus, UniProt P04925); conditions: pH 7
# [8] = system: BSA (1%, w/v); test: Effect of pH and temperature on protease activity
# [9] = biological target: PrP (PrP^C and PrP^Sc) in N2a22L20 lysate, 22 L scrapie strain (Mus musculus, UniProt P04925); conditions: pH 7
# [10] = biological target: pK resistant prion material (PrP^Sc) (Mus musculus, UniProt P04925)
# [11] = 10 mM reagent, purified protease 16
molecule,measurement,setting,value
Cl.NCCc1ccc(S(=O)(=O)F)cc1 [Pefabloc],Inhibition of the enzyme (in words),[1],significantly inhibited
same,"Residual protease activity (% of control, no reagent) (10 mM)",[1]; [11],"2.9 % of control, no reagent"
CC(C)C[C@H](NC(=O)[C@@H](O)[C@H](N)Cc1ccccc1)C(=O)O [Bestatin],"Residual protease activity (% of control, no reagent) (10 mM)",[1],"92.6 % of control, no reagent"
CC(C)CC(=O)N[C@H](C(=O)N[C@H](C(=O)N[C@@H](CC(C)C)[C@@H](O)CC(=O)N[C@@H](C)C(=O)N[C@@H](CC(C)C)[C@@H](O)CC(=O)O)C(C)C)C(C)C [Pepstatin] (Isovaleryl-VV[Sta]A[Sta]-OH),"Residual protease activity (% of control, no reagent) (10 mM)",[1],"97.6 % of control, no reagent"
O=S(=O)(F)Cc1ccccc1 [Phenylmethylsulfonyl fluoride],Inhibition of the enzyme (in words),[1],significantly inhibited
same,"Residual protease activity (% of control, no reagent) (10 mM)",[1]; [11],"5.4 % of control, no reagent"
CC(=O)N[C@@H](CC(C)C)C(=O)N[C@@H](CC(C)C)C(=O)N[C@H](C=O)CCCNC(=N)N [Leupeptin],"Residual protease activity (% of control, no reagent) (10 mM)",[1],"56.8 % of control, no reagent"
O=C(O)CN(CCN(CC(=O)O)CC(=O)O)CC(=O)O [Ethylenediaminetetraacetic acid],"Residual protease activity (% of control, no reagent) (10 mM)",[1],"99.6 % of control, no reagent"
B1,Removal of RML prion strain as detected by western blot,[2],remove all traces of the RML prion strain
same,Activity levels of original versus recombinant protease at the same pHs,[3],little difference in activity levels
B2,"Detectable PrP by western blot, antibody 7A12",[4],complete loss of detectable PrP
same,Removal of RML prion strain as detected by western blot,[2],remove all traces of the RML prion strain
same,Specific activity (units/mg protein),[5]; purification step: (NH4)2SO4 (0-60%) fractionation,0.79 units/mg protein
same,Specific activity (units/mg protein),[5]; purification step: Bacitricin-Sepharose 4B,3.56 units/mg protein
same,Specific activity (units/mg protein),[5]; purification step: Cell free supernatant,0.05 units/mg protein
same,Time to degrade 301V brain material,[6],≤ 15 min
same,Time to degrade 301V from mouse brain homogenate,[6],≤ 15 min
same,"Detectable PrP by western blot, antibody 7A12",[7],complete loss of detectable PrP
same,pH of optimal activity,"[8]; BSA in 0.1M Universal buffer, pHs 2.0-12.0",11.0 and > 8.0
same,Temperature of optimal activity,[8]; assay at 20-90° C.,50 °C
same,Activity at the assay pH of pH 7.0,[8]; pH 7.0,retains significant activity
same,"Detectable PrP by western blot, antibody 7A12",[9],complete loss of detectable PrP
same,"PrP signal by western blot, antibodies 8H4, 11G5 and GE8",[9],No signal
same,Detectable prion signal,[10],complete loss of detectable prion signal
same,Time to degrade the prion,[10],≤ 15 min
same,Activity levels of original versus recombinant protease at the same pHs,[3],little difference in activity levels
